Test results as given in article PMC6411343 (International Journal of Oncology, 2019).

Target: human epidermal growth factor receptor 2 (HER2) (human (endogenous in SKOV3, BT474, …, UniProt P04626 23-1255))
Assay: radioligand binding

KD1 (high affinity interaction, 1:2 interaction model) [pM]	KD2 (low affinity interaction, 1:2 interaction model) [nM]	Binder
99	3.5	[^125I]I-HPEM-G3-GGGC (DARPin G3-GGGC, site-specifically labelled with [^125I]I-iodo-[(4-hydroxyphenyl)ethyl]maleimide) (designed binder, [^125I]I-HPEM ([^125I]iodo-[(4-hydroxyphenyl)ethyl]maleimide) on the C-terminal cysteine (maleimide-cysteine coupling)) DLGKKLLEAARAGQDDEVRILMANGADVNAKDEYGLTPLYLATAHGHLEIVEVLLKNGADVNAVDAIGFTPLHLAAFIGHLEIAEVLLKHGADVNAQDKFGKTAFDISIGNGNEDLAEILQKLNGGGGC
146	1.5	[^125I]I-G3-GGGC-IAA (DARPin G3-GGGC, directly radioiodinated, terminal cysteine capped with iodoacetamide) (designed binder, iodine-125 by direct iodination; terminal cysteine capped by alkylation with iodoacetamide (IAA)) DLGKKLLEAARAGQDDEVRILMANGADVNAKDEYGLTPLYLATAHGHLEIVEVLLKNGADVNAVDAIGFTPLHLAAFIGHLEIAEVLLKHGADVNAQDKFGKTAFDISIGNGNEDLAEILQKLNGGGGC
163	3.9	[^125I]I-G3-H6 (DARPin G3-H6, directly radioiodinated with iodine-125) (designed binder, iodine-125 on tyrosines (direct chloramine-T radioiodination, random attachment; number and position not controlled)) MDLGKKLLEAARAGQDDEVRILMANGADVNAKDEYGLTPLYLATAHGHLEIVEVLLKNGADVNAVDAIGFTPLHLAAFIGHLEIAEVLLKHGADVNAQDKFGKTAFDISIGNGNEDLAEILQKLNGS
